Reference: article PMC2577326

Target: PspGI-D138A selenomethionine variant (Pyrococcus GI-H)
Test: crystal structure

stoichiometry N: 2
Substance: PspGI-D138A selenomethionine variant (enzyme)
